# Test results: patent publication US20230287081A1 (published 2023)
# Read-outs that look alike come from different tables or passages of the source.
# How the values were obtained:
# Assay in all cases: ELISA
# [1] = target: T1, hPD-L1-hIGg1Fc (SinoBiological) (human, UniProt Q9NZQ7 19-238)
# [2] = target: T1, hPD-L1-hIGg1Fc (SinoBiological); remark: listed apart in the source
# [3] = target: T1, hPD-L1-hIGg1Fc (SinoBiological); remark: listed apart in the source
# [4] = target: T1, hPD-L1-hIGg1Fc (SinoBiological); remark: listed apart in the source
# T1 sequence (Q9NZQ7 19-238): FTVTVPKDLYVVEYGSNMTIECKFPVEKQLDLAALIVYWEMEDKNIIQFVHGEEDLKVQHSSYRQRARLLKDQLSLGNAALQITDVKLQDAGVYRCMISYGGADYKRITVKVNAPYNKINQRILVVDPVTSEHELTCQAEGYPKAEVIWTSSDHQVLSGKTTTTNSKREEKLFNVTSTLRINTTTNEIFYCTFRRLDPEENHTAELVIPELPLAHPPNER
binder,measurement,setting,value
PD-1m-aEGFRL (bispecific antibody) heavy: QVQLQESGPGLVKPSETLSLTCTVSGGSVSSGDYYWTWIRQSPGKGLEWIGHIYYSGNTNYNPSLKSRLTISIDTSKTQFSLKLSSVTAADTAIYYCVRDRVTGAFDIWGQGTMVTVSSASTKGPSVFPLAPSSKSTSGGTAALGCLVKDYFPEPVTVSWNSGALTSGVHTFPAVLQSSGLYSLSSVVTVPSSSLGTQTYICNVNHKPSNTKVDKKVEPKSCDKTHTCPPCPAPPVAGPSVFLFPPKPKDTLMISRTPEVTCVVVDVSHEDPEVKFNWYVDGVEVHNAKTKPREEQYNSTYRVVSVLTVLHQDWLNGKEYKCKVSNKGLPSSIEKTISKAKGQPREPQVYTLPPSRDELTKNQVSLTCLVKGFYPSDIAVEWESNGQPENNYKTTPPVLDSDGSFFLYSKLTVDKSRWQQGNVFSCSVMHEALHNHYTQKSLSLSPGK light: not shown,EC50,[1],0.0394 nM
PD-1-aEGFRL (bispecific antibody) heavy: QVQLQESGPGLVKPSETLSLTCTVSGGSVSSGDYYWTWIRQSPGKGLEWIGHIYYSGNTNYNPSLKSRLTISIDTSKTQFSLKLSSVTAADTAIYYCVRDRVTGAFDIWGQGTMVTVSSASTKGPSVFPLAPSSKSTSGGTAALGCLVKDYFPEPVTVSWNSGALTSGVHTFPAVLQSSGLYSLSSVVTVPSSSLGTQTYICNVNHKPSNTKVDKKVEPKSCDKTHTCPPCPAPPVAGPSVFLFPPKPKDTLMISRTPEVTCVVVDVSHEDPEVKFNWYVDGVEVHNAKTKPREEQYNSTYRVVSVLTVLHQDWLNGKEYKCKVSNKGLPSSIEKTISKAKGQPREPQVYTLPPSRDELTKNQVSLTCLVKGFYPSDIAVEWESNGQPENNYKTTPPVLDSDGSFFLYSKLTVDKSRWQQGNVFSCSVMHEALHNHYTQKSLSLSPGK light: not shown,EC50,[1],1.54 nM
PD-1m-aGPC-3L (bispecific antibody) heavy: QVQLVQSGAEVKKPGASVKVSCKASGYTFTDYEMHWVRQAPGQGLEWMGALDPKTGDTAYSQKFKGRVTLTADKSTSTAYMELSSLTSEDTAVYYCTRFYSYTYWGQGTLVTVSSASTKGPSVFPLAPSSKSTSGGTAALGCLVKDYFPEPVTVSWNSGALTSGVHTFPAVLQSSGLYSLSSVVTVPSSSLGTQTYICNVNHKPSNTKVDKKVEPKSCDKTHTCPPCPAPPVAGPSVFLFPPKPKDTLMISRTPEVTCVVVDVSHEDPEVKFNWYVDGVEVHNAKTKPREEQYNSTYRVVSVLTVLHQDWLNGKEYKCKVSNKGLPSSIEKTISKAKGQPREPQVYTLPPSRDELTKNQVSLTCLVKGFYPSDIAVEWESNGQPENNYKTTPPVLDSDGSFFLYSKLTVDKSRWQQGNVFSCSVMHEALHNHYTQKSLSLSPGK light: LDSPDRPWNPPTFSPALLVVTEGDNATFTCSFSNTSESFVLNWYRMSPSNQTDKLAAFPEDRSQPGQDSRFRVTQLPNGRDFHMSVVRARRNDSGTYLCGAISLAPKVQIKESLRAELRVTERRAEVPTAHPSPSPRPAGQFQGGGGSGGGGSGGGGSGDVVMTQSPLSLPVTPGEPASISCRSSQSLVHSNRNTYLHWYLQKPGQSPQLLIYKVSNRFSGVPDRFSGSGSGTDFTLKISRVEAEDVGVYYCSQNTHVPPTFGQGTKLEIKRTVAAPSVFIFPPSDEQLKSGTASVVCLLNNFYPREAKVQWKVDNALQSGNSQESVTEQDSKDSTYSLSSTLTLSKADYEKHKVYACEVTHQGLSSPVTKSFNRGEC,EC50,[2],0.0258 nM
"aPD-L1 (antibody, V domains shown) VH: EVQLLESGGGLVQPGGSLSLSCAASGFSFSSGYDMCWVRQAPGKGLEWIACIAAGSAGITYDANWAKGRFTISRDNSKNTLYLQMNSLRAEDTAVYYCARSAFSFDYAMDLWGQGTLVTVSS VL: DIQMTQSPSTLSASVGDRVTITCQASQSISSHLNWYQQKPGKAPKLLIYKASTLASGVPSRFSGSGSGTEFTLTISSLQPDDFATYYCQQGYSWGNVDNVFGGGTKVTVL",EC50,[3],0.068 nM
same,EC50,[4],0.068 nM
